Laboratory results from patent publication US20160146829A1 (University of California, published 2016).
Ends that are not written are not given here. * marks the point of attachment. Biotin = O=C1N[C@H]2[C@H](CS[C@H]2CCCCC(=O)*)N1

Legend:
[1] = target: T1, pCp-1B, biotinylated alemtuzumab binding peptide (not fully specified (bridges); also: incubated with sodium tetrathionate (oxidizing) before binding); assay: peptide ELISA, biotinylated peptide on NeutrAvidin plate, antibody diluted in TBST, anti-human IgG POD detection
T1 construct: Synthetic peptide (Sigma-Genosys); For ELISA it was captured on NeutrAvidin plates; also called Cp-1 (biotinylated peptide)
T1 peptide: ACGSLSPSSCGGK(Biotin)

[2] = target: T1, pCp-1B, biotinylated alemtuzumab …; assay: nano-pore optical interferometry (SkiPro); biotinylated peptide on streptavidin chip, whole mAb in solution

B1: alemtuzumab (antibody, V domains shown)
VH: QVQLQESGPGLVRPSQTLSLTCTVSGFTFTDFYMNWVRQPPGRGLEWIGFIRDKAKGYTTEYNPSVKGRVTMLVDTSKNQFSLRLSSVTAADTAVYYCAREGHTAAPFDYWGQGSLVTVSS
VL: DIQMTQSPSSLSASVGDRVTITCKASQNIDKYLNWYQQKPGKAPKLLIYNTNNLQTGVPSRFSGSGSGTDFTFTISSLQPEDIATYYCLQHISRPRTFGQGTKVEIKR
In the case of B1, the “EC50 (read off the curve)” value [1] is reported as about 0.3 µg/mL, the Kd [2] is reported as 163 nM and the koff [2] is reported as 0.00132 s⁻¹. For the same binder, the kon [2] was 8130 M⁻¹ s⁻¹.
